Assay results taken from patent publication US10208288B2, “Differentiation of human embryonic stem cells into pancreatic endocrine cells” (Janssen Biotech, Inc., priority 2012, dated 2019).

System: cells of the human embryonic stem cell line H1 differentiated to stage 5
Test: Immunostaining for insulin protein expression at the end of Stage 5
Format: cell-based
Conditions: 50 or 100 ng/ml for three days at stage 5, immunostaining vs control; FIG. 2, FIG. 3
Experimental: Cells of the human embryonic stem cell line H1 (hESC H1, passage 40) were seeded as single cells at 1×10^5 cells/cm^2 on MATRIGEL™ (1:30 dilution; BD Biosciences, NJ)-coated dishes in mTeSR®1 media supplemented with 10 μM of Y27632. Forty-eight hours post seeding, cultures were washed in incomplete PBS (phosphate buffered saline without Mg or Ca). Cultures were differentiated into pancreatic endoderm/endocrine lineages as follows: • a) Stage 1 (Definitive Endoderm (DE)—3 days): Cells were cultured for one day in stage 1 media (see Example 1, above). Cells were then cultured for an additional day in MCDB-131 medium supplemented with 0.1% fatty acid-free BSA, 0.0012 g/ml sodium bicarbonate, 1× GlutaMax™, 4.5 mM D-Glucose, 100 ng/ml GDF8, and 0.1 μM MCX compound. […]

B1: Ephrin-A3: Ephrin ligand protein from R & D systems (protein, UniProt P52797 23-214, looked up)
Ephrin-A3: QGPGGALGNRHAVYWNSSNQHLRREGYTVQVNVNDYLDIYCPHYNSSGVGPGAGPGPGGGAEQYVLYMVSRNGYRTCNASQGFKRWECNRPHAPHSPIKFSEKFQRYSAFSLGYEFHAGHEYYYISTPTHNLHWKCLRMKVFVCCASTSHSGEKPVPTLPQFTMGPNVKINVLEDFEGENPQVPKLEKSISG
  protein expression of insulin: significantly enhanced
